# Test results from article PMC9427789, “Prediction of the structural interface between fibroblast growth factor23 and Burosumab using alanine scanning and molecular docking” (Scientific Reports, 2022).
# Substitutions are numbered along the chain they refer to. Numbers in names are those of the source.
# B1: Burosumab (wild type) (antibody, V domains shown)
# VH: QVQLVQSGAEVKKPGASVKVSCKASGYTFTNHYMHWVRQAPGQGLEWMGIINPISGSTSNAQKFQGRVTMTRDTSTSTVYMELSSLRSEDTAVYYCARDIVDAFDFWGQGTMVTVSS
# VL: AIQLTQSPSSLSASVGDRVTITCRASQGISSALVWYQQKPGKAPKLLIYDASSLESGVPSRFSGSGSGTDFTLTISSLQPEDFATYYCQQFNDYFTFGPGTKVDIK
# notes: heavy chain of Burosumab; light chain of Burosumab; Whole antibody, detected with anti-human IgG H&L. The results say HEK293T, the methods HEK293-F FreeStyle; Residue numbers are Chothia; also called Crysvita; WT Burosumab; source: HEK293-F FreeStyle, transiently transfected, purified (Protein A agarose)
# B2: Burosumab VH:V97A (antibody, V domains shown)
# VH: B1 VH with V101A
# VL: B1 VL
# notes: as the heavy chain of m1; as the light chain of m1; source: HEK293-F FreeStyle, transiently transfected, purified (Protein A agarose)
# B3: Burosumab variant with combined VH:V97A and VL:A32S mutations (antibody, V domains shown)
# VH: B1 VH with V101A
# VL: B1 VL with A32S
# notes: as the heavy chain of m1; as the light chain of m1; also called combined Burosumab variant; double mutant; source: HEK293-F FreeStyle, transiently transfected, purified (Protein A agarose)
# B4: Burosumab VL:D50A (antibody, V domains shown)
# VH: B1 VH
# VL: B1 VL with D50A
# notes: as the heavy chain of m1; as the light chain of m1; also called D50A (LCDR2); source: HEK293-F FreeStyle, transiently transfected, purified (Protein A agarose)
# B5: Burosumab VH:D98A (antibody, V domains shown)
# VH: B1 VH with D102A
# VL: B1 VL
# notes: as for B2
# B6: Burosumab VL:F96A (antibody, V domains shown)
# VH: B1 VH
# VL: B1 VL with F95A
# notes: as the heavy chain of m1; as the light chain of m1; also called F96A (LCDR3); source: HEK293-F FreeStyle, transiently transfected, purified (Protein A agarose)
# B7: Burosumab VL:A32S (antibody, V domains shown)
# VH: B1 VH
# VL: B1 VL with A32S
# notes: as for B2
# What was measured:
# Details in all cases: both partners purified
# [1] = molecular target: T1, His-SUMO-FGF23 (N-terminal domain of human FGF23, wild type) (Homo sapiens, UniProt Q9GZV9); test: ELISA; spot-check ELISA: FGF23 coated at 2 µg/mL on Maxisorp plates (4 °C overnight), Burosumab or its alanine mutants at two concentrations (0.04 and 1.2 µg/mL), room temperature 2 h, anti-human IgG H&L-HRP, A450; fold change from A450 against wild-type Burosumab
# T1 construct: FGF23, human, N-terminal domain; also called wild-type FGF23; source: E. coli BL21(DE3), purified (Ni-NTA); not shown: His, N-terminal, kept; SUMO, N-terminal, kept
# T1 sequence (Q9GZV9 25-204): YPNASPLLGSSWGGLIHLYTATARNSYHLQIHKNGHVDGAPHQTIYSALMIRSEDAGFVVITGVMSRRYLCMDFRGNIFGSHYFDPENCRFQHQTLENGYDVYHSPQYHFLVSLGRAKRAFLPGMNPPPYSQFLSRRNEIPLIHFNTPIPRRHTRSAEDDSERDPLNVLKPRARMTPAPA
# [2] = molecular target: T2, His-SUMO-FGF23 R160A-R161A (N-terminal domain of human FGF23) (Homo sapiens, UniProt Q9GZV9, R160A | R161A); test: ELISA; indirect ELISA: FGF23 or its mutants coated at 2 µg/mL on Maxisorp plates (4 °C overnight), Burosumab or its variants three-fold serially diluted in PBS from 9 µg/mL, room temperature 2 h, anti-human IgG H&L-HRP, A450; fold change from Kd values against the wild type
# T2 construct: FGF23, human, N-terminal domain; also called combined R160A and R161A; double alanine mutant; source: E. coli BL21(DE3), purified (Ni-NTA); not shown: His, N-terminal, kept; SUMO, N-terminal, kept
# T2 sequence (Q9GZV9 25-204 R160A/R161A): as the sequence (Q9GZV9 25-204) above, with R136A, R137A counted along it
# [3] = molecular target: T3, His-SUMO-FGF23 Y124A (N-terminal domain of human FGF23) (Homo sapiens, UniProt Q9GZV9, Y124A); test: as above
# T3 construct: FGF23, human, N-terminal domain; source: E. coli BL21(DE3), purified (Ni-NTA); not shown: His, N-terminal, kept; SUMO, N-terminal, kept
# T3 sequence (Q9GZV9 25-204 Y124A): as the sequence (Q9GZV9 25-204) above, with Y100A counted along it
# [4] = molecular target: T4, His-SUMO-FGF23 H117A (N-terminal domain of human FGF23) (Homo sapiens, UniProt Q9GZV9, H117A); test: as above
# T4 construct: FGF23, human, N-terminal domain; source: E. coli BL21(DE3), purified (Ni-NTA); not shown: His, N-terminal, kept; SUMO, N-terminal, kept
# T4 sequence (Q9GZV9 25-204 H117A): as the sequence (Q9GZV9 25-204) above, with H93A counted along it
# [5] = molecular target: T1, His-SUMO-FGF23 (N-terminal domain of …); test: as above
binder,measurement,setting,value
B1,binding result,[1],binds
same,fold decrease in binding against wild-type FGF23,[2],7 fold
same,fold decrease in binding against wild-type FGF23,[3],~50 fold
same,fold decrease in binding against wild-type FGF23,[4],> 100 fold
B2,fold improvement of binding affinity against wild-type Burosumab,[1],1.2 fold
B3,fold improvement of binding against wild-type Burosumab,[5],3.7 fold
B4,binding result,[1],no binding
same,fold decrease in binding against wild-type Burosumab,[1],> 100 fold
B5,fold decrease in binding against wild-type Burosumab,[1],2.62 fold
B6,fold decrease in binding against wild-type Burosumab,[1],2.32 fold
B7,fold improvement of binding affinity against wild-type Burosumab,[5],1.6 fold
